Measurements reported in patent US20220160842A1, “METHOD OF TREATING INFECTIVE ENDOCARDITIS” (priority 2019, published 2022).
Values after ≈ are worked out from the molar mass of the structure shown. Values joined by “and” are separate entries in the source; they are usually repeats but may differ in a detail not shown here. Identical values can stand only once. Like-named read-outs stand apart in the source and are kept apart here.

What was measured:
S. haemolyticus = assay: MIC by broth microdilution; type: cell-based, Staphylococcus haemolyticus; conditions: S. haemolyticus, N=36
Method: (§1) Minimal inhibitory concentrations (MICs) of exebacase against staphylococci were determined by broth microdilution (BMD) using a nonstandard antimicrobial susceptibility testing (AST) medium comprised of cation-adjusted Mueller Hinton broth (caMHB) supplemented with horse serum (Sigma Aldrich) and dithiothreitol (DTT; Sigma Aldrich) to final concentrations of 25% and 0.5 mM, respectively. This medium, referred to as caMHB-HSD, is approved for use in exebacase AST by the Clinical and Laboratory Standards Institute (CLSI) (CLSI. 2017, Jan. 16-17. AST Subcommittee Working Group Meetings and Plenary. AST Meeting Files & Resources, clsi.org/education/microbiology/ast/ast-meeting-files-resources/. Additional supplementation with 2.5% lysed red blood cells (Remel™, ThermoFisher) was included for analyses of streptococcal isolates, as recommended by CLSI. See CLSI, 2015. Methods for Dilution Antimicrobial Susceptibility Tests for Bacteria That Grow Aerobically, 10th Edition. Clinical and Laboratory Standards Institute, Wayne, Pa.
(§2) Daptomycin (Sigma Aldrich) and vancomycin hydrochloride (Sigma Aldrich) were tested following the reference BMD method for each. See CLSI. 2015. Methods for Dilution Antimicrobial Susceptibility Tests for Bacteria That Grow Aerobically, 10th Edition. Clinical and Laboratory Standards Institute, Wayne, Pa.

S. capitis = assay: MIC by broth microdilution; type: cell-based, Staphylococcus capitis; conditions: S. capitis, N=13
Method: as §1, §2

all staphylococci tested = assay: MIC by broth microdilution; type: cell-based
Method: as §2

S. gordonii = assay: MIC by broth microdilution; type: cell-based, Streptococcus gordonii; conditions: S. gordonii (viridans), N=11
Method: as §1, §2

S. mutans = assay: MIC by broth microdilution; type: cell-based, Streptococcus mutans; conditions: S. mutans (viridans), N=22
Method: as §1, §2

S. oralis = assay: MIC by broth microdilution; type: cell-based, Streptococcus oralis; conditions: S. oralis (viridans), N=15
Method: as §1, §2

S. salivarius = assay: MIC by broth microdilution; type: cell-based, Streptococcus salivarius; conditions: S. salivarius (viridans), N=12
Method: as §1, §2

E. faecalis = assay: MIC by broth microdilution; type: cell-based, Enterococcus faecalis; conditions: E. faecalis (formerly group D), N=18
Method: as §1, §2

[1] = system: MRSA strain MW2 (CA-MRSA; USA400); conditions: cited from earlier work
S. epidermidis = assay: MIC by broth microdilution; type: cell-based, Staphylococcus epidermidis; conditions: N=52
Method: as §1, §2

Staphylococcus hominis = assay: MIC by broth microdilution; type: cell-based; conditions: n=2 strains, listed as exebacase
Method: as §1

S. pseudintermedius = assay: MIC by broth microdilution; type: cell-based, Staphylococcus pseudintermedius; conditions: each of n=6 isolates
Method: as §1

S. sciuri = assay: MIC by broth microdilution; type: cell-based, Staphylococcus sciuri; conditions: n=3 isolates
Method: as §1

S. simulans = assay: MIC by broth microdilution; type: cell-based, Staphylococcus simulans; conditions: n=1 isolate
Method: as §1

S. hyicus = assay: MIC by broth microdilution; type: cell-based, Staphylococcus hyicus; conditions: n=1 isolate
Method: as §1

S. intermedius = assay: MIC by broth microdilution; type: cell-based, Streptococcus intermedius; conditions: S. intermedius (viridans), N=10
Method: as §1, §2

[2] = system: S. aureus bacteremia/endocarditis; assay: Phase II clinical study, CF-301 plus standard of care antibiotics; type: in vivo, human
Method: These 116 patients constituted the microbiological intent to treat (mITT) population of a Phase II clinical study and was the primary efficacy analysis population. The primary efficacy endpoint was the clinical responder rate (CRR) at Day 14. Diagnosis and clinical outcomes were determined by a blinded Adjudication Committee.

[3] = healthy subjects, estimated previously; cited from earlier work

CCCCCCCCCC(=O)N[C@@H](Cc1c[nH]c2ccccc12)C(=O)N[C@H](CC(N)=O)C(=O)N[C@@H](CC(=O)O)C(=O)N[C@@H]1C(=O)NCC(=O)N[C@@H](CCCN)C(=O)N[C@@H](CC(=O)O)C(=O)N[C@H](C)C(=O)N[C@@H](CC(=O)O)C(=O)NCC(=O)N[C@H](CO)C(=O)N[C@@H]([C@H](C)CC(=O)O)C(=O)N[C@@H](CC(=O)c2ccccc2N)C(=O)O[C@@H]1C [DAP, Daptomycin]
MIC Range (S. haemolyticus): 0.25 to 2 µg/mL | MIC50 (S. haemolyticus; Staphylococcus haemolyticus, read-out: MIC50): 0.5 µg/mL (≈ 0.309 µM) | MIC90 (S. haemolyticus; Staphylococcus haemolyticus, read-out: MIC90): 1 µg/mL (≈ 0.617 µM) | MIC Range (S. capitis): 0.25 to 1 µg/mL | MIC50 (S. capitis; Staphylococcus capitis, read-out: MIC50): 0.5 µg/mL (≈ 0.309 µM) | MIC90 (S. capitis; Staphylococcus capitis, read-out: MIC90): 1 µg/mL (≈ 0.617 µM) | MIC Range (all staphylococci tested): 0.125 to 2 µg/mL | MIC Range (S. gordonii): 0.25 to 1 µg/mL | MIC50 (S. gordonii; Streptococcus gordonii, read-out: MIC50): 0.5 µg/mL (≈ 0.309 µM) | MIC90 (S. gordonii; Streptococcus gordonii, read-out: MIC90): 0.5 µg/mL (≈ 0.309 µM) | MIC Range (S. mutans): 0.25 to 8 µg/mL | MIC50 (S. mutans; Streptococcus mutans, read-out: MIC50): 0.5 µg/mL (≈ 0.309 µM) | MIC90 (S. mutans; Streptococcus mutans, read-out: MIC90): 1 µg/mL (≈ 0.617 µM) | MIC Range (S. oralis): 0.25 to 1 µg/mL | MIC50 (S. oralis; Streptococcus oralis, read-out: MIC50): 0.5 µg/mL (≈ 0.309 µM) | MIC90 (S. oralis; Streptococcus oralis, read-out: MIC90): 0.5 µg/mL (≈ 0.309 µM) | MIC Range (S. salivarius): 0.06 to 0.5 µg/mL | MIC50 (S. salivarius; Streptococcus salivarius, read-out: MIC50): 0.25 µg/mL (≈ 0.154 µM) | MIC90 (S. salivarius; Streptococcus salivarius, read-out: MIC90): 0.5 µg/mL (≈ 0.309 µM) | MIC Range (E. faecalis): 0.25 to 0.5 µg/mL | MIC50 (E. faecalis; Enterococcus faecalis, read-out: MIC50): 0.5 µg/mL (≈ 0.309 µM) | MIC90 (E. faecalis; Enterococcus faecalis, read-out: MIC90): 0.5 µg/mL (≈ 0.309 µM) | MIC [1]: 0.5 µg/mL (≈ 0.309 µM)

B1: CF-301: anti-staphylococcal lysin encoded within a prophage of the Streptococcus suis genome, SEQ ID NO: 2 with or without initial methionine (protein, listed as Streptococcus suis)
chain: MTTVNEALNNVRAQVGSGVSVGNGECYALASWYERMISPDATVGLGAGVGWVSGAIGDTISAKNIGSSYNWQANGWTVSTSGPFKAGQIVTLGATPGNPYGHVVIVEAVDGDRLTILEQNYGGKRYPVRNYYSAASYRQQVVHYITPPGTVAQSAPNLAGSRSYRETGTMTVTVDALNVRRAPNTSGEIVAVYKRGESFDYDTVIIDVNGYVWVSYIGGSGKRNYVATGATKDGKRFGNAWGTFK
MIC50 (S. epidermidis): 0.5 µg/mL | MIC90 (S. epidermidis): 0.5 µg/mL | MIC Range (S. epidermidis): 0.125 to 2 µg/mL | MIC50 (S. haemolyticus): 0.5 µg/mL | MIC90 (S. haemolyticus): 1 µg/mL | MIC Range (S. haemolyticus): 0.25 to 2 µg/mL | MIC50 (S. capitis): 1 µg/mL | MIC90 (S. capitis): 2 µg/mL | MIC Range (S. capitis): 0.25 to 4 µg/mL | MIC (Staphylococcus hominis): 0.125 µg/mL and 0.25 µg/mL | MIC (S. pseudintermedius): 0.25 µg/mL | MIC (S. sciuri): 2 µg/mL | MIC (S. simulans): 0.125 µg/mL | MIC (S. hyicus): 0.25 µg/mL | MIC50 (S. gordonii): 4 µg/mL | MIC90 (S. gordonii): 8 µg/mL | MIC Range (S. gordonii): 0.5 to 8 µg/mL | MIC50 (S. mutans): 32 µg/mL | MIC90 (S. mutans): 64 µg/mL | MIC50 (S. oralis): 4 µg/mL | MIC90 (S. oralis): 64 µg/mL | MIC Range (S. oralis): 0.5 to 64 µg/mL | MIC50 (S. salivarius): 2 µg/mL | MIC90 (S. salivarius): 8 µg/mL | MIC Range (S. salivarius): 0.5 to 8 µg/mL | MIC50 (S. intermedius): 0.25 µg/mL | MIC90 (S. intermedius): 0.25 µg/mL | MIC Range (S. intermedius): 0.06 to 0.5 µg/mL | MIC50 (E. faecalis): 16 µg/mL | MIC90 (E. faecalis): 64 µg/mL | MIC Range (E. faecalis): 1 to 256 µg/mL | hypersensitivity ([2]; CF-301 treatment group): no reports of hypersensitivity | incidence of treatment emergent adverse events (TEAEs) ([2]; CF-301 treatment group): 88.9% | serious TEAEs ([2]; CF-301 treatment group): 47.2% | CRR higher than in patients treated with standard of care antibiotics alone ([2]; MRSA-infected patients): about 40% | CRR ([2]; MRSA-infected patients, CF-301 and standard of care antibiotics): 74.10% | tolerability ([2]; addition of CF-301 to a standard of care antibiotic regimen): well-tolerated | died ([2]; from study drug administration through 28 days after the end of SOC antibiotic treatment): 19.4% | clinical responder rate (CRR) at Day 14 ([2]; mITT population, single two hour infusion of CF-301 plus SOC antibiotics): 70.4% | CRR ([2]; patients with bacteremia alone): 81.8% | CRR ([2]; subset with bacteremia/right-sided endocarditis): 80% | effect of age on AUC0-24 or Cmax (covariate on peripheral clearance): less than 4% | CL lower than in healthy subjects (patients vs healthy subjects): 40% | Vd lower than in healthy subjects (patients vs healthy subjects): 17% | fold higher AUC0-24 or Cmax than patients with normal renal function (patients with moderate and severe renal impairment, expected from PPK model): 1.3 to 2 fold | Total volume distribution (patients, PPK model): 20.2 L | central compartment (Vc) (patients, PPK model, RSE 8.2%): 4.5 L | Clearance (patients, three-compartment PPK model, RSE 5.5%): 4.2 Liters (L)/hour (hr) | MIC [1]: 1.0 µg/mL | CL [3]: 7.1 L/h | volume distribution (Vd) [3]: 27.7 L
